# Experimental data published in patent publication US20260069689A1 (Regeneron, published 2026).
# Numbering of substitutions follows the chain as printed.
# B1: mAb14255 (antibody, V domains shown)
# VH: QVQLQESGPGLVKPSETLSLTCTVSGGSISGYYWSWIRQPPGKGLDWIGYIYYRGNTNYNPSLKSRVTISVDTSNNQFSLKLSSVTAADTAVYYCARYGEGYGDASGYHFDYWGQGTLVTVSS
# VL: QSALTQPASVSGSPGQSITISCTGTSSDVGSYNLVSWYQQHPGKAPKLMIYEDSKRPSGVANPFSGSKSGNTASLTISGLQAEDEADYYCSSYAGSSTWVFGGGTKLTVLG
# B2: mAb14258 (antibody, V domains shown)
# VH: QLQLQESGPGLVKPSETLSLICTGSGDSISSSHYYWGWIRQPPGKGLEWIGSTYFSGSTYYNPSLKSRVSISVDTSKNQVSLKLISVTAADTAVYYCAREMGATLGDYWGPGTLVTVSS
# VL: QSVLTQPPSASGTPGQRVTISCSGSSSNIGNNYVYWYQQFPGTTPRLLIYRNNERPSGVPDRFSGSKSGTSASLVISGLRSEDEADYYCAAWDDSLSAHYVFGTGTKVTVLG
# B3: mAb14313 (antibody, V domains shown)
# VH: EVQLVESGGGLVQPGRSLRLSCVASGFTFDDSAMHWVRQPPGKGLEWVSGISWNSGIIGYAESVKGRFIISRDNAKNSLFLHMRGLRPEDTAVYYCARDRLELSYYYYGMDVWGQGTTVTVSS
# VL: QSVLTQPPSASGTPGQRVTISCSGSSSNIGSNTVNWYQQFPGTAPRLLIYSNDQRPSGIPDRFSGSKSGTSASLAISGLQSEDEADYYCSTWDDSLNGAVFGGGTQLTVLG
# B4: mAb13458 (antibody, V domains shown)
# VH: EVQLVESGGGLVQPGRSLRLSCAASGFTFDDYAMHWVRQAPGKGLEWVSGISWNSGSIGYADSVKGRFTISRDNAKNSLYLQMNSLRAEDTALYYCAKDIGITTPYWGQGTLVTVSS
# VL: AIQMTQSPSSLSASVGDRVTITCRASQDIRNDLGWYQQKPGKAPKLLIYSASSLQTGVPSRFSGSGSGTDFTLTISSLHPEDFATYYCLQDYWYTWTFGQGTKVEIKR
# B5: mAb13459 (antibody, V domains shown)
# VH: B4 VH
# VL: B4 VL with W93N, T95V
# B6: mAb14283 (antibody, V domains shown)
# VH: QVQLQESGPGLVKPSGTLSLTCDVSGGSISSNNWWSWVRQRPGKGLQWIGEIYHNENTNYNPSLKSRVIMSIDKSKNQFSLKLTSVTAADTAVYYCARGDVLDWFDPWGQGTLVTVSS
# VL: QSALTQPASVSGSPGQSTTISCTGTSSDVGGYNYVSWYQQYPGKAPKLMIYDVTNRPSGVSHRFSGSKSGNTASLTISGLQAEDEADYYCSSYTSSSTVIFGGGTKLTVLG
# B7: mAb14247 (antibody, V domains shown)
# VH: QITLKESGPTLVKPTQTLTLTCTFSGFSLSTSAVGVGWIRQPPGKALEWLALIYWDDDKRYSPSLKSRLTITKDTSKNQLVLTMTNVDPVDTATYYCAHHTIQLIFDYWGQGTLVTVSS
# VL: QSALTQPASVSGSPGQSITISCTATSSDVGNYNYVSWYQQHPGKAPKLMIYEVSNRPSGVSNRFSGSKSGNTASLTISGLQAEDEADYYCSSYTSSSTPLVFGGGTKLTVLG
# B8: mAb14315 (antibody, V domains shown)
# VH: QVQLVQSGAEVKKPGSSVKVSCKASGDTFSTYAINWVRQAPGQGLEWMGRFIHIFGTANYAQKFQGRVTITADESTSTAYMELRSLRSEDTAVYYCARDGVDYGDYRPDYWGQGTLVTVSS
# VL: EIVLTQSPGTLSLSPGERATLSCRASQSVSSNYLAWYQQKPGQAPRLLIYGASSRATGIPERFSGSGSGTDFTLTISRLEPEDFAVYYCQQYGSSLYTFGQGTKLEIKR
# B9: mAb14289 (antibody, V domains shown)
# VH: QVQLVQSGPEVKKPGASVKVSCKASGYTFTSYAISWVRQAPGQGLEWMGWISAYNGNTNYAQKLQGRVTMTTDTFTSTAYMELRSLRSDDTAVYYCAVPADHITFDYWGQGTLVTVSS
# VL: EIVLTQSPGTLSLSPGERATLSCRASQSVSSYLAWYQQKPGQAPRLLIHGASSRATGIPDRFSGSGSGTDFTLTISRLEPEDFAVYYCQQYGSSFLTFGGGTKVEIKR
# B10: mAb14284 (antibody, V domains shown)
# VH: QITLKESGPTLVKPTQTLTLTCTFSGFSFSTSGVGVGWIRQPPGKTLEWLALIYWDDDKRYSPSLKSRLTITKDTSKNQVVLTMTNMDPVDTATYFCAHHGIPTIFGYWGQGALVTVSS
# VL: QSALTQPASVSGSPGQSITISCTGTSSDLGVFNYVSWYQQHPGKAPKLMIYEVTNRPSGVSNRFSGSKSGNTASLTISGLQAEDEADYYCSSYTTSSTVFGGGTKLTVLG
# B11: mAb14235 (antibody, V domains shown)
# VH: QITLKESGPTLVKPTQTLTLTCTFSGFSLNTGGVGVGWIRQPPGNALEWLALIYWDDDKRYNPSLKTRLTISKDTSKNQVVLTMTNMDPVDTATYFCAHLTIAVIVDFWGQGTLVTVSS
# VL: B10 VL with G24A, L29V, V31T, F32Y, Y38F, Q40H, S96T, T98I
# B12: mAb14312 (antibody, V domains shown)
# VH: EVQLVESGGGLVQPGGSLRLSCAASGFTVSRSYMTWVRQAPGKGLEWVSVIFTGGRTDHADSVKGRFTISRHNSKNTLYLQMNSLRTEDTAVYYCARVAIVGATGAFDIWGQGTMVTVSS
# VL: QSVLTQPPSVSGAPGQRVTISCTGSSSNIGAGDDVHWYQQLPGTAPKLLIYGNSNRPSGVPDRFSGSKSGTSASLAITGLQAEDEADYYCQSYDSSLSGSVVFGGGTKLTVLG
# B13: mAb14257 (antibody, V domains shown)
# VH: B12 VH with T35N, I51V, R56T, D58K, A60T, H72D, K75M, T87P, G102E, A103T
# VL: B12 VL with S25T, G32D, D33F, L41F, N53H, S54T, V60I
# B14: mAb14294 (antibody, V domains shown)
# VH: EVQLVESGGGLVQPGGSLRLSCAASGFTFSNHWMDWVRQAPGKGLVWVSRINSDGSSTDYADSVRGRFTMSRDNAKNTLYLQMSSLRAEDTAVYYCAREGMIFGAVIIPGWYFDLWGRGALVTVSS
# VL: EIVLTQSPGTLSLSPGERATLSCRASQSVSSSQLAWYQQKPGQAPRLLIYGASSRATGIPDRFSGSGSGTDFTLTISRLEPEDFAVYYCQQYDSFGQGTKLEIKR
# Molecular target: SARS-COV-2 RBD extracellular domain expressed with a C-terminal myc-myc-hexahistidine tag (SARS-COV-2 RBD-mmH) (SARS-CoV-2)
# Test: SPR Biacore, mAb captured on anti-hFc, RBD-mmH analyte, 37 C
Binder,Kd [nM],koff [s⁻¹],kon [M⁻¹ s⁻¹],t½ [min]
B1,2.76,0.00535,1.94e+06,2.2
B2,0.796,0.0017,2.14e+06,6.8
B3,0.921,0.00259,2.81e+06,4.5
B4,1.54,0.00139,907000,8.3
B5,2.6,0.00204,786000,5.7
B6,1.17,0.00179,1.54e+06,6.4
B7,1.95,0.00163,832000,7.1
B8,2.26,0.000985,435000,11.7
B9,1.46,0.00176,1.2e+06,6.5
B10,0.94,0.000605,644000,19.1
B11,1.37,0.00109,793000,10.6
B12,0.631,0.000988,1.57e+06,11.7
B13,2.34,0.00762,3.26e+06,1.5
B14,0.984,0.00059,600000,19.6
